Measured values published in the supplement of paper PMC10567573.

B1: CDC14A (parent)
chain: GPHPKSKIENGYPLHAPEAYFPYF
B2: PBXIP1 (parent)
chain: LPVETLGPASRMDPESERALQAPH

Variants of: B1
Experiment: protein stability index of a GFP-peptide fusion (GPS, HEK-293T) (PSI 1-6); higher = more stable
Conditions: c terminus: a fixed tail appended
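Note: lentivirally expressed fusions sorted by FACS into six bins by GFP to DsRed ratio, PSI derived from sequencing read proportions per bin multiplied by bin number.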

Protein stability index of substitutions, site by site:
Y12: M 2.74; N 3.03; Q 2.7; R 2.58; S 2.73; T 3.07; V 2.19; W 1.86
P13: A 2.57; C 1.97; D 2.81; E 2.94; F 1.92; G 2.39; H 1.92; I 1.43; K 1.88; L 1.95; M 1.68; N 2.68; Q 2.43; R 2.06; S 2.22; T 1.96; V 2.05; W 1.58; Y 1.88
L14: A 2.46; C 1.67; D 2.59; E 3.65; F 2.02; G 2.65; H 2.68; I 2.27; K 2.4; M 2.41; N 2.81; Q 3.06; R 2.51; S 2.79; T 2.45; V 2.11; W 2.46; Y 1.89
H15: A 2.45; C 2.23; D 2.63; E 2.79; F 1.7; G 2.59; I 1.87; K 2.7; L 1.76; M 1.96; N 2.37; P 2.57; Q 1.93; R 2.29; S 2.83; T 2.74; V 2.53; W 1.2; Y 1.68
A16: C 2.84; D 2.45; E 2.4; F 1.82; G 2.77; H 2.32; I 2.04; K 2.12; L 1.95; M 2.01; N 2.25; Q 2.49; R 2.35; S 2.14; T 2.41; V 2.21; W 1.99; Y 2.29
P17: A 2.21; C 2; D 2.71; E 2.11; F 1.87; G 2.48; H 1.84; I 2.06; K 3.2; L 1.97; M 2.07; N 2.16; Q 2.14; R 1.8; S 1.87; T 3.15; V 1.92; W 2.04; Y 1.79
E18: A 2.61; C 1.65; D 2.62; F 1.92; G 2.3; H 2.24; I 1.95; K 2.23; L 2.03; M 1.45; N 2.01; Q 2.31; R 2.69; S 2.28; T 2.01; V 1.57; W 1.56; Y 2.22
A19: C 1.8; D 2.2; E 2.36; F 2.39; G 2.22; H 2.22; I 2.38; K 2.51; L 1.98; M 2.97; N 2.71; P 2.41; Q 2.48; R 1.78; S 2.35; T 2.39; V 1.89; W 1.87; Y 2.35
Y20: A 2.76; C 2.19; D 3.29; E 2.76; F 1.89; G 3.25; H 2.71; I 2.57; K 2.79; L 3.1; M 2.71; N 2.63; Q 2.55; R 2.44; S 2.55; T 2.84; V 2.55; W 2.19
F21: A 3; C 2.92; D 3.55; G 2.8; H 2.47; I 2.17; K 3.05; L 2.17; M 2.69; N 2.91; Q 2.85; R 2.94; S 2.96; V 2.9; W 2.71; Y 2.44
P22: A 1.61; C 2.9; D 2.73; E 2.22; G 1.8; H 1.6; I 3.32; K 2.67; L 2.38; M 2.76; N 1.99; Q 2.47; R 2.5; S 1.98; T 1.64; V 2.19; W 2.54
Y23: A 2.93; C 2.77; D 3.92; E 3.4; F 2.23; G 3.21; H 2.97; I 2.4; K 3.13; L 1.95; M 2.32; N 3.28; Q 3.24; R 2.97; S 3.11; T 3; V 2.07; W 1.91
F24: A 3.43; C 2.66; D 3.37; E 3.61; G 3.09; H 3.12; I 2.92; K 3.4; L 2.51; M 2.23; N 2.62; P 3.08; Q 2.6; R 2.44; S 2.38; T 3.41; V 2.75; W 1.89; Y 2.6

Variants of: B2
Experiment: as above
Conditions: c terminus: a fixed tail appended

Protein stability index, by site and new letter:
L1: A 5.48; C 3.66; D 5.07; E 4.68; F 4.61; G 5.38; H 4.89; I 4.42; K 5.15; M 4.43; N 5.38; P 5.09; Q 5.33; R 4.72; S 5.25; T 4.64; V 4.65; W 5.13; Y 5.17
P2: A 4.24; C 4.42; D 5; E 3.99; F 3.42; G 4.98; H 4.71; I 3.21; K 3.95; L 3.37; M 3.04; N 4.6; Q 4.47; R 4.05; S 4.4; T 4.36; V 3.33; W 1.53; Y 3.13
V3: A 4.73; C 4.61; D 5.5; E 5.36; F 4.88; G 4.78; H 5.34; I 4.92; K 5.38; L 4.63; M 4.74; N 5.42; P 5.25; Q 5.07; R 4.27; S 4.83; T 5.56; W 4.55; Y 5.04
E4: A 5.07; C 4.99; D 5.71; F 3.94; G 5.03; H 4.79; I 4.98; K 4.99; L 3.49; M 4.74; N 4.53; P 5.25; Q 4.46; R 5.09; S 4.94; T 5.18; V 4.62; W 3.71; Y 4.22
T5: A 5.26; C 4.89; D 5.49; E 5.77; F 4.89; G 5.33; H 4.72; I 4.52; K 4.38; L 3.9; M 4.41; N 5.12; P 4.95; Q 5.52; R 4.14; S 4.68; V 4.6; W 4.65; Y 4.93
L6: A 5.19; C 4.55; D 5.48; E 5.21; F 4.81; G 4.71; H 5.09; I 3.73; K 5.03; M 5.3; N 5.42; P 5.41; Q 5.78
